Key:
[1] = target: T1, murine heparanase (Mus musculus, UniProt Q6YGZ1); assay: Cross species capture ELISA, murine heparanase; format: binding; conditions: min 0.06, max 0.9 OD units
T1 construct: made in house; host or cells: Hek293 cells (conditioned medium), inferred for the ELISA
T1 sequence (Q6YGZ1 28-535): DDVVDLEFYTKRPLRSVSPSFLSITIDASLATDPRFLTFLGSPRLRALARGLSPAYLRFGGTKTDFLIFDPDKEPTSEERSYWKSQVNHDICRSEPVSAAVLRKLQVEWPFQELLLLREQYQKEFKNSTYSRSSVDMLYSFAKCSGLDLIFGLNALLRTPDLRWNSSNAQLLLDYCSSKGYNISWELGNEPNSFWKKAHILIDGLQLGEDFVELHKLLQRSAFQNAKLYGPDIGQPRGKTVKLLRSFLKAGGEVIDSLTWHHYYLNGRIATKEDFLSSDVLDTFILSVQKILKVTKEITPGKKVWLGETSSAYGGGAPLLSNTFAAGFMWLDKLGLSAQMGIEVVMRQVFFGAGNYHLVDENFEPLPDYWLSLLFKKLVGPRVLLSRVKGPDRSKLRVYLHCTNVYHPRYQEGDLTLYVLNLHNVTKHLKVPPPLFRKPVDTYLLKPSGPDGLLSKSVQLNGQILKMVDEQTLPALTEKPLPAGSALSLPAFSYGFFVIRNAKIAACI
Procedure: (§1) Initially, cross species binding to human, murine and cynomolgus heparanase was determined in an ELISA assay in which heparanase was captured onto plates using a rabbit anti-heparanase antibody (Raybiotech, Cat. IP-14-155). Exhaustive supernatants were added to the plates at a final dilution of 1:5 and bound antibody detected with a rabbit anti-human IgG Fc.

[2] = system: HCT116 xenograft; assay: Subcutaneous xenograft tumour growth, HCT116; format: in vivo, SCID mice; conditions: once weekly i.p.; 10E9.1 at 15 mg per kg
Procedure: (§2) MCF7-Hpa1#19 and HCT116 tumour cells were harvested from sub-confluent cultures. A total of 5×10^6 (MCF7-Hpa1#19) or 10^7 (HCT116) tumour cells were inoculated subcutaneously into the flank of male SCID mice. HCT116 tumour cells were implanted in PBS; […] cells were implanted in PBS containing 50% matrigel.
(§3) When tumours had attained ˜200 mm^3, tumour bearing mice were randomised into treatment groups and dosed with the following; PBS; an isotype matched control IgG2 antibody, 15 mg per kg; anti-heparanase antibody 10E9.1, 7.5 or 15 mg per kg. All treatments were administered once weekly i.p. Tumour growth was measured twice per week using calipers and tumour volumes calculated according to an ellipsoid volume is formula (3.142/6×length×width×width) from measures of the largest tumour diameter and two opposing widths (FIG. 11).

[3] = system: MDA MB231-Hpa1#4 cells; assay: Heparanase expression in cells cultured with antibody (Western blot); format: cell-based, human; conditions: 25 μg per ml antibody, 72 hrs, compared to untreated or IgG2 control
Procedure: MDA MB231-Hpa1#4 cells were cultured in the presence of 25 μg per ml anti-human heparanase antibody or control IgG2 antibody (Sigma Cat. No. 1504-1MG) for 72 hrs. Following the removal of culture medium, protein extracts were prepared from the cells in 100 μl RIPA buffer and separated on […] gels and transferred to nitrocellulose as described above. Western blots were probed with an anti-heparanase antibody that detected only pro-heparanase (SantaCruz Cat. No. SC25825).

[4] = system: MCF7-Hpa1#19 xenograft; assay: Subcutaneous xenograft tumour growth, MCF7-Hpa1#19; format: in vivo, SCID mice; conditions: once weekly i.p.; 10E9.1 at 7.5 or 15 mg per kg
Procedure: as §2, §3

[5] = target: T2, recombinant heparanase captured with rabbit anti-heparanase antibody (Homo sapiens, UniProt Q9Y251); assay: ELISA binding to antibody-captured heparanase; conditions: antibody capture
T2 construct: Heparanase 8 and 50 kDa sub-units were cloned into pacGP67 as Sma 1-EcoR1 fragments; made in house; host or cells: Hi5 insect cells, baculovirus (pFastBac Dual)
T2 sequence (Q9Y251 158-543 limits assumed): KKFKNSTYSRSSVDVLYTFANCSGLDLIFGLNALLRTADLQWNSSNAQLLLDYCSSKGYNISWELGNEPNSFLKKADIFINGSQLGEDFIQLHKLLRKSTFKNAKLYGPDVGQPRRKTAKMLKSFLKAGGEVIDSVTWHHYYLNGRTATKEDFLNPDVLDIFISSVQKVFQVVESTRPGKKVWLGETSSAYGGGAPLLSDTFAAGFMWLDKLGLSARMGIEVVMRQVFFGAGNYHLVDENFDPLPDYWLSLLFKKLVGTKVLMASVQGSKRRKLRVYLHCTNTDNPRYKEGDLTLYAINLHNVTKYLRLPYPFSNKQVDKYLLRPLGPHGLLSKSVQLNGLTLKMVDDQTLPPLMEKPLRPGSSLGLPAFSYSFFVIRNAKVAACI
T2 sequence (Q9Y251 36-109 limits assumed): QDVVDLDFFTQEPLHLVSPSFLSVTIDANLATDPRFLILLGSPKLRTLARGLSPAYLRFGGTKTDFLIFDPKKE
Procedure: (§4) Titres of antibodies from Campaigns 1 and 2 were determined in an ELISA. Costar 3368 medium binding plates were coated directly with recombinant human heparanase or plates were coated with Rabbit anti-heparanase antibody (Raybiotech, Cat. IP-14-155) to capture recombinant heparanase. Directly coated heparanase was detected in three separate plates by mouse (InSight Cat. INS-26-1-0000), goat (Santa Cruz, Cat. sc26136) or rabbit (Raybiotech, Cat. IP-14-155) anti-heparanase antibodies, and quantified using appropriate secondary antibodies. Antibody captured heparanase was detected using mouse anti-heparanase (Insight Cat. INS-26-1-0000). At the end of the immunisation program, fusions were performed using mouse myeloma cells and lymphocytes isolated from the spleens and lymph nodes of the immunised mice by means of electroporation, as described in Example 2.
(§5) Initial screening to detect antibodies binding to human heparanase in both direct coating and antibody capture ELISAs as described above identified 800 hybridomas for further testing; 535 IgG2 from Campaign 1 and 2 and 265 IgG4 from Campaign 2. Enzyme inhibition assays and cross species binding to cynomolgus and murine heparanase, in an antibody capture ELISA, identifed 12 antibodies that were taken forward for sub-cloning to provide purified antibodies for further analysis. Subsequently, confirmation of activity against human heparanase (FIGS. 3 and 4) and inhibition of recombinant cynomolgus and murine heparanase activity in the HS-cryptate degradation assay (FIG. 5a-c), together with sequence analysis, identified 8 antibodies that are described in the table below.

[6] = target: T3, human heparanase (Homo sapiens, UniProt Q9Y251); assay: Cross species capture ELISA, human heparanase; format: binding
T3 sequence (Q9Y251 36-543): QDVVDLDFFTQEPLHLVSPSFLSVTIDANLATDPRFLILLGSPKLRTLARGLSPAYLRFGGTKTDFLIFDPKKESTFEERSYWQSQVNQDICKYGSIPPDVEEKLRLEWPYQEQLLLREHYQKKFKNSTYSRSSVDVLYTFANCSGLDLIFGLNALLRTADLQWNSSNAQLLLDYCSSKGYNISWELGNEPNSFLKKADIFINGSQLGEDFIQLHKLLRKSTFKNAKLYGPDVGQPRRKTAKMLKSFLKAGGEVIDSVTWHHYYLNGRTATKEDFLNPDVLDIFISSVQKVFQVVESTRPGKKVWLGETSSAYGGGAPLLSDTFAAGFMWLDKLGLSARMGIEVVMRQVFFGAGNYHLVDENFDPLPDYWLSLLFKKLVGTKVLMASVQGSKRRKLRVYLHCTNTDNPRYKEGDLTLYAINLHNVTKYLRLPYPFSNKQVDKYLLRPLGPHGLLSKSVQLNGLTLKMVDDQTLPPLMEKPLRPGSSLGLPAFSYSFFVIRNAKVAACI
Procedure: as §1

[7] = system: cynomolgus heparanase; assay: Cross species capture ELISA, cynomolgus heparanase; format: binding; conditions: min 0.06, max 1.5 OD units
Procedure: as §1

[8] = target: T4, recombinant human heparanase (Homo sapiens, UniProt Q9Y251); assay: ELISA binding to directly coated recombinant human heparanase
T4 construct: Heparanase 8 and 50 kDa sub-units were cloned into pacGP67 as Sma 1-EcoR1 fragments; made in house; host or cells: Hi5 insect cells, baculovirus (pFastBac Dual)
T4 sequence (Q9Y251 158-543 limits assumed): T2 sequence (Q9Y251 158-543 limits assumed)
T4 sequence (Q9Y251 36-109 limits assumed): T2 sequence (Q9Y251 36-109 limits assumed)
Procedure: as §4, §5

[9] = target: T5, Recombinant Hpa1 (Homo sapiens, UniProt Q9Y251); assay: Medium resolution Biacore affinity; format: binding; conditions: purified antibody captured on CM4 chip; Hpa1 1 nM and 10 nM; 25° C.
T5 construct: Heparanase 8 and 50 kDa sub-units were cloned into pacGP67 as Sma 1-EcoR1 fragments; made in house; host or cells: Hi5 insect cells, baculovirus (pFastBac Dual)
T5 sequence (Q9Y251 158-543 limits assumed): T2 sequence (Q9Y251 158-543 limits assumed)
T5 sequence (Q9Y251 36-109 limits assumed): T2 sequence (Q9Y251 36-109 limits assumed)
Procedure: For medium resolution Biacore™ tests, cloned and purified antibodies were used. Each of three purified antibodies (10E9.1, 15A1.2, and 15A11.1) were captured onto a high-density goat anti-human antibody surface over a CM4 Biacore™ chip. Recombinant Hpa1 was diluted to the desired concentration (1 nM and 10 nM) in 10 mM HEPES, 150 mM NaCl, 0.005% tween-20, 0.1 mg per ml BSA pH7.4 (25° C.) immediately prior to injection. Data were fit globally to a 1:1 interaction model with a term for mass transport included. The resulting KD values are summarised below in Table 4.

Binding to heparanase Mouse [1]: 0.17 OD units
Binding to captured heparanase [5]: 0.5 OD units
Binding to heparanase Human [6]: 0.21 OD units
Binding to heparanase Cyno [7]: 0.14 OD units
Binding to direct coated heparanase [8]: 0.07 OD units
ka [9]: 3.6e+06 M⁻¹ s⁻¹
kd [9]: 0.000309 s⁻¹
B1: 15A11.1: fully human anti-heparanase monoclonal antibody, G2κ; VH SEQ ID NO 10, VL SEQ ID NO 12; ATCC PTA-9490 (antibody, listed as Homo Sapiens, V domains shown)
VH: QVQLVQSGAEVKKPGASVKVSCKVSGDTLTELSMHWVRQTPGKGLEWMGGFDPEDGETIYAQKFQGRVTMTGDTSTDTAYMELSSLRSEDTAVYYCATEGDYGDSEEYYYYYGMDVWGQGTTVTVSS
VL: DIQMTQSPSSLSASVGDRVTITCRASQGISNYLAWYQQKPGKVPKLLIYAASTLQSGVPSRFSGSGSGTDFTLTISSLQPEDVATYYCQKYNRAPFTFGPGTKVDIK
notes: fully human anti-heparanase monoclonal antibody, G2κ; ATCC PTA-9490
Tumour growth inhibition [2]: not inhibited
Inhibition of heparanase expression [3]: significant inhibition of heparanase expression
Tumour growth inhibition [4]: not inhibited
